Patent US20220242950A1 (CANTARGIA, published 2022)
Substitutions are numbered along the chain they refer to.

T1: recombinant mf IL1RAP aa21-367 (cynomolgus monkey (Macaca fascicularis), UniProt A0A2K5X5J5 21-367)
T1 construct: also called cynomolgus monkey IL1RAP; cyno IL1RAP
T1 sequence: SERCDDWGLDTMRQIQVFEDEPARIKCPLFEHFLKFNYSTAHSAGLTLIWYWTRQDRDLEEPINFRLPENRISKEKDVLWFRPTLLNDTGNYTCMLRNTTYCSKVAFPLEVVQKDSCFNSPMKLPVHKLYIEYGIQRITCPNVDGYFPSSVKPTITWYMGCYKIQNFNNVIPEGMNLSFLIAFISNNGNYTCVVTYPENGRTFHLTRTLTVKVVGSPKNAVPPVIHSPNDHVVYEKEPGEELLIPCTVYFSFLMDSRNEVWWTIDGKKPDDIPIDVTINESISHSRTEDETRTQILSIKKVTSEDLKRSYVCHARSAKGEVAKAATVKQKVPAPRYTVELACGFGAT

T2: recombinant hIL1RAP Domain1+2+3 (aa21-367) (human, UniProt Q9NPH3 21-367)
T2 construct: Numbering on Uniprot Q9NPH3
T2 sequence (looked up): T1 sequence with F183L, P273T, T326K

T3: human IL1RAP on the cell surface (human, UniProt Q9NPH3 21-570)
T3 sequence (looked up): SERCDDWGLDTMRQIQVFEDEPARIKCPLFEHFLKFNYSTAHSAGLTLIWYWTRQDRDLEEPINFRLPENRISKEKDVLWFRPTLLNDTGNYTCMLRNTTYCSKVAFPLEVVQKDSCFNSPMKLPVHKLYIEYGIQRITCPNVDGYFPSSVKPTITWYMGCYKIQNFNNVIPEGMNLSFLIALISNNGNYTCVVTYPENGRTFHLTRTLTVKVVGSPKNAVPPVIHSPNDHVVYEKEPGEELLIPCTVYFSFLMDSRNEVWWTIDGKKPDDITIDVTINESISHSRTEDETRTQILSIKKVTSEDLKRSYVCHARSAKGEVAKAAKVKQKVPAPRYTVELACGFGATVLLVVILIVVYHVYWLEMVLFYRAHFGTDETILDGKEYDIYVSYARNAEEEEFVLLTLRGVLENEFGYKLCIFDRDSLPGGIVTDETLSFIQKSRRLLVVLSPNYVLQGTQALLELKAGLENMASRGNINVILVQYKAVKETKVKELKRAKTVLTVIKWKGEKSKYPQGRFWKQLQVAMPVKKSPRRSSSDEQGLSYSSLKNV

B1: h48D2 VH2:VL2 (antibody, human IgG1, kappa, L234A L235A, V domains shown)
VH: EVQLVESGGALVQPGGSLRLSCIVSGPSLSHFDITWFRQAPGKGLEWVATISPGVSTYYASWAKSRFTISTDTSKNTLFLQMDSLRAEDTAVYYCARGGVGSSWKAFDLWGPGTLVTVSS
VL: QIVLTQSPATLSASVGDRVTITCQASESISTALAWYQQKPGKAPKLLIYKASTLPSGVPSRFSGSGSGTEFTLTISSLQPDDSATYYCQQGFSSGNVHNAFGQGTKLEIKR
notes: Humanized; also called VL2:VH2
B2: h48D2 VH2:VL3 (antibody, human IgG1, kappa, L234A L235A, V domains shown)
VH: B1 VH
VL: DILLTQTPSVVSASVGDRVTITCQASESISTALAWYQQKPGQAPRLLIYKASTLPSGVPSRFRGSGSGTDFTLTITSLQPEDFATYYCQQGFSSGNVHNAFGGGTRLEIKR
notes: Humanized; also called VL3:VH2
B3: h48D2 VH4:VL2 (antibody, human IgG1, kappa, L234A L235A, V domains shown)
VH: QVQLQESGPGLVKPSETLSLTCTVSGPSLSHFDITWIRQPPGKGLEWIGTISPGVSTYYASWAKSRFTISVDTSKNQFSLKLTSVTAADTATYYCARGGVGSSWKAFDLWGPGTLVTVSS
VL: B1 VL
notes: Humanized; also called VL2:VH4
B4: h48D2 VH3:VL5 (antibody, human IgG1, kappa, L234A L235A, V domains shown)
VH: EVQLLESGGGLVLPGGSLRLSCAASGPSLSHFDITWVRQAPGKGLEWVSTISPGVSTYYASWAKSRFTISRDNSKNTLYLQMSSLRAEDTAVYYCARGGVGSSWKAFDLWGLGTTVTVSS
VL: APVLTQSPATLEASVGDRVTITCQASESISTALAWYQQKPGQPPKLLIYKASTLPSGVPSRFSGSGSGTEFTLTISDLESDDAATYYCQQGFSSGNVHNAFGGGTEVVVKR
notes: Humanized; also called VL5:VH3
B5: h48D2 VH4:VL5 (antibody, human IgG1, kappa, L234A L235A, V domains shown)
VH: B3 VH
VL: B4 VL
notes: Humanized; also called VL5:VH4
B6: h48D2 VH3:VL2 (antibody, human IgG1, kappa, L234A L235A, V domains shown)
VH: B4 VH
VL: B1 VL
notes: Humanized; also called VL2:VH3
B7: h48D2 VH3:VL3 (antibody, human IgG1, kappa, L234A L235A, V domains shown)
VH: B4 VH
VL: B2 VL
notes: Humanized; also called VL3:VH3
B8: h48D2 VH2:VL4 (antibody, human IgG1, kappa, L234A L235A, V domains shown)
VH: B1 VH
VL: ELVMTQSPSSVSASVGDRVTITCQASESISTALAWYQQKPGKAPKLLIYKASTLPSGVPSRFSGSGSGTDFTLTINSLQPEDFATYYCQQGFSSGNVHNAFGGGTKVEIKR
notes: Humanized; also called VL4:VH2
B9: h48D2 VH4:VL4 (antibody, human IgG1, kappa, L234A L235A, V domains shown)
VH: B3 VH
VL: B8 VL
notes: Humanized; also called VL4:VH4
B10: h48D2 VH4:VL1 (antibody, human IgG1, kappa, L234A L235A, V domains shown)
VH: B3 VH
VL: B8 VL with E1D, L2I, V11L, N76S, E108V
notes: Humanized; also called VL1:VH4
B11: h48D2 VH4:VL3 (antibody, human IgG1, kappa, L234A L235A, V domains shown)
VH: B3 VH
VL: B2 VL
notes: Humanized; also called VL3:VH4
B12: h48D2 VH5.AP:VL4 (antibody, human IgG1, kappa, L234A L235A, V domains shown)
VH: QEQLEESGGGLVKPGGTLSLTCTVSGPSLSHFDITWIRQPPGSGLEWIGTISPGVSTYYASWAKSRVTISVDTSLNTVSLKLSSVTAADTATYFCARGGVGSSWKAFDLWGPGTLVTISS
VL: B8 VL
notes: Humanized and de-immunized; also called VL4:VH5.AP

target: T1, recombinant mf IL1RAP aa21-367; test: binding ELISA, coated recombinant mf IL1RAP aa21-367

Row | IC50 [µg/mL] | Binder
1 | 0.0292 | B1
2 | 0.0314 | B2
3 | 0.0291 | B3
4 | 0.0279 | B4
5 | 0.0244 | B5
6 | 0.0274 | B6
7 | 0.0279 | B7
8 | 0.0312 | B8
9 | 0.0251 | B9
10 | 0.0316 | B10
11 | 0.0302 | B11

target: T2, recombinant hIL1RAP Domain1+2+3 …; test: binding ELISA, coated recombinant hIL1RAP aa21-367

Row | IC50 [µg/mL] | Binder
12 | 0.0261 | B1
13 | 0.0273 | B2
14 | 0.0322 | B3
15 | 0.0232 | B4
16 | 0.0258 | B5
17 | 0.0258 | B6
18 | 0.0281 | B7
19 | 0.0262 | B8
20 | 0.0243 | B9
21 | 0.0308 | B10
22 | 0.0312 | B11

target: T3, human IL1RAP on the cell surface; test: cell-based or functional assay

Row | IC50 of IL-1α signaling (HEK-Blue assay) [µM] | IC50 of IL-1β signaling (HEK-Blue assay) [µM] | IC50 of IL-33 signaling (HEK-Blue assay) [µM] | IC50 of IL-36α signaling (HEK-Blue assay) [µM] | IC50 of IL-36β signaling (HEK-Blue assay) [µM] | IC50 of IL-36γ signaling (HEK-Blue assay) [µM] | Binder
23 | 0.000209 | 0.000122 | 0.00148 | 0.000132 | 0.000146 | 0.000182 | B12

target: T2, recombinant hIL1RAP Domain1+2+3 …; test: bio-layer interferometry, human IL1RAP
Procedure: (§1) Affinity measurements were done on BLItz™ Label-Free Protein Analysis System from ForteBio, using the Basic Kinetics module in the BLItz Pro 1.3.1.3 software from Molecular Devices. Protein A biosensors were hydrated in blocking buffer (PBS, 0.5% BSA, 0.05% Tween 20, pH 7.4) for minimum 10 min at room temperature before coating. Protein A biosensors were coated with antibodies by dipping the biosensors in 200 μl of antibody solution (10 μg/ml in blocking buffer) for 30 min at room temperature. The sensors were then incubated in 200 μl blocking buffer for at least 10 min before use. […] The baseline was made in blocking buffer with a duration time of 30 sec. Association was made for 120 sec in hIL1RAP followed by 120 sec dissociation in blocking buffer.
The antibodies were characterized for A) binding (ELISA analysis, human and cynomolgus monkey IL1RAP), B) inhibition of cytokine signaling (HEK-Blue™ assay), C) affinity (Bio-layer interferometry), D) size heterogeneity (SE-HPLC) and E) yield (concentration, A280). […] SE-HPLC was performed using standard procedures and PBS as running buffer. Affinity and cytokine inhibition were measured as previously described in Example 10. All 25 humanized clones were analyzed for blocking activity on IL-1α, IL-1β and IL-33 signaling while only the clones that had retained the inhibitory activity similar to chimeric 48D2 were analyzed for IL-36 inhibition.
KD values for affinity towards human IL1RAP are shown in Table 11 for the humanized 48D2 variants. Affinity was measured using bio-layer interferometry. […] See also Table 4 for a direct comparison of chimeric 48D2, humanized 48D2 variant VH5:VL4, and a humanized and de-immunized 48D2 variant VH5.GL:VL4.

Row | Kd [µM] | Binder
24 | 0.00733 | B1
25 | 0.0121 | B2
26 | 0.0132 | B3
27 | 0.0344 | B4
28 | 0.015 | B5
29 | 0.0224 | B6
30 | 0.0274 | B7
31 | 0.0112 | B8
32 | 0.0228 | B9
33 | 0.0197 | B10
34 | 0.0167 | B11

target: T3, human IL1RAP on the cell surface; test: cell-based or functional assay; remark: another data set of the same source

Row | IC50 of IL-1β signaling (HEK-Blue assay) [µM] | IC50 of IL-33 signaling (HEK-Blue assay) [µM] | IC50 of IL-1α signaling (HEK-Blue assay) [µM] | Binder
35 | 0.000882 | 0.0458 | – | B1
36 | 0.00366 | 1.95 | – | B2
37 | 0.00555 | – | – | B3
38 | 0.00987 | 0.474 | 0.288 | B4
39 | 0.000273 | 0.0743 | – | B5
40 | 0.00911 | 0.474 | – | B6
41 | 0.0105 | – | – | B7
42 | 0.00136 | 0.0864 | ~4130 | B8
43 | 0.00467 | 0.26 | – | B9
44 | 0.00295 | – | – | B10
45 | 0.00297 | 7.03 | – | B11

target: T2, recombinant hIL1RAP Domain1+2+3 …; test: bio-layer interferometry, human IL1RAP; remark: another data set of the same source
Procedure: as §1
KD values for affinity towards human IL1RAP are shown in Table 17 for the de-immunized h48D2 variants. Affinity was measured using bio-layer interferometry. […] See also Table 4 for a direct comparison of 48D2, humanized 48D2, and de-immunized h48D2.

Row | Kd [µM] | Binder
46 | 0.0017 | B12
